Where two headings read alike, the source gives them in different places.
How the values were obtained:
[1] = biological target: T1, full-length recombinant human PAD4 (human, UniProt Q9UM07 1-663); assay: ELISA, immobilized human PAD4
T1 construct: Full-length recombinant; also called peptidylarginine deiminase 4

[2] = biological target: T1, full-length recombinant human PAD4; assay: ELISA, immobilized human PAD4; remark: listed apart in the source
[3] = biological target: T1, full-length recombinant human PAD4; assay: ELISA, immobilized human PAD4; remark: listed apart in the source
[4] = biological target: T1, full-length recombinant human PAD4; assay: ELISA, immobilized human PAD4; remark: listed apart in the source
[5] = biological target: T1, full-length recombinant human PAD4; assay: SPR (Biacore T200), antibody captured, human PAD4 analyte
From the text: The humanized anti-PAD4 antibodies derived from G8 and H7 were subjected to Biacore (GE Healthcare, Biacore T200) assay to evaluate their affinity. At that time, the combination of the frameworks was such that the H-chain framework was H4.00 and the L-chain framework was L4.29. The class of each antibody used was IgG1κ. Full-length recombinant human PAD4 was used as an antigen. A Human Antibody Capture kit (GE Healthcare, BR-1008-39) was used for the affinity assay. Specifically, in accordance with the standard protocol provided by the manufacture, NHS/EDC was used and an amine coupling method, in which a free carboxyl group is fixed on a surface of a CM5 chip, was used to immobilize a rabbit anti-human polyclonal antibody on the surface of a CM5 chip. Next, the humanized anti-PAD4 antibodies were each captured by the rabbit anti-human polyclonal antibody. Human PAD4 at each concentration was subjected to Biacore T200 measurement to create a kinetic sensorgram.

T1 sequence (Q9UM07 whole entry): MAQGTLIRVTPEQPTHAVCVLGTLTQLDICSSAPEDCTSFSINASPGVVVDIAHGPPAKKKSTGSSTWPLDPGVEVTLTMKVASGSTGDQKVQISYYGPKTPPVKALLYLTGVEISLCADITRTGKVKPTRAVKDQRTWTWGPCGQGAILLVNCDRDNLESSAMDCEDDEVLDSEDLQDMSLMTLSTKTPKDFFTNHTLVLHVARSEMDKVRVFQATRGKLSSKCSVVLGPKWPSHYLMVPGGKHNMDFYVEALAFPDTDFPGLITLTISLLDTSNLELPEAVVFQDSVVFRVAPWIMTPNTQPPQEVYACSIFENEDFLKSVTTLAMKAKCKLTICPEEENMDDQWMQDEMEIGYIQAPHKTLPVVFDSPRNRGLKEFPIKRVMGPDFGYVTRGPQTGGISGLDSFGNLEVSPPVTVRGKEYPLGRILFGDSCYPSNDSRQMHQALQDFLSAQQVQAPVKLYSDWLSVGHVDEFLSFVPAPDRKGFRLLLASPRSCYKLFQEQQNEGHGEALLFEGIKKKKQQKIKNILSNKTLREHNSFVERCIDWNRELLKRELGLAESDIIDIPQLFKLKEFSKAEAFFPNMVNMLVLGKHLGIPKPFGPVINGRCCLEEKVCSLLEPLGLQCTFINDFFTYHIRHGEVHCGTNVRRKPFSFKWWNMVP

Row | Binder | O.D. 490/630 at 0.0078125 µg/mL [3] | O.D. 490/630 at 0.015625 µg/mL [3] | O.D. 490/630 at 0.03125 µg/mL [3] | O.D. 490/630 at 0.0625 µg/mL [3] | O.D. 490/630 at 0.125 µg/mL [3] | O.D. 490/630 at 0.25 µg/mL [3] | O.D. 490/630 at 0.5 µg/mL [3] | O.D. 490/630 at 1 µg/mL [3] | EC50 (read off the curve) [4] | O.D. 490/630 at 0 µg/mL (blank) [4] | O.D. 490/630 at 0.000064 µg/mL [4] | O.D. 490/630 at 0.00032 µg/mL [4] | O.D. 490/630 at 0.0016 µg/mL [4] | O.D. 490/630 at 0.008 µg/mL [4] | O.D. 490/630 at 0.04 µg/mL [4] | O.D. 490/630 at 0.2 µg/mL [4] | O.D. 490/630 at 1 µg/mL [4] | other results
1 | H7-derived, humanized anti-PAD4 antibody (IgG4A) (antibody, it may be this one; also called humanized anti-PAD4 antibody (IgG4A) derived from H7) heavy: not shown light: SYELTQPPSVSVSPGQTARITCSGGSGRYYYGWYQQKPGQAPVTVIYSSTHRPSGIPERFSGSNSGSTTTLTISGVQAEDEADYYCGTADSSSYVFGGGTKLTVLGQPKAAPSVTLFPPSSEELQANKATLVCLISDFYPGAVTVAWKADSSPVKAGVETTTPSKQSNNKYAASSYLSLTPEQWKSHRSYSCQVTHEGSTVEKTVAPTECS | – | – | – | – | – | – | – | – | – | – | – | – | – | – | – | – | – | EC50 (read off the curve) [1]: ~4 ng/mL
2 | Humanized Ab #G8-H4.00/L4.29 (antibody, human IgG1, kappa, V domains shown, also called humanized anti-PAD4 antibody derived from G8 (IgG1 kappa); G8 VH H4.00 / VL L4.29) VH: not shown VL: SYELTQPPSVSVSPGQTARITCSGGNRNYYYGWYQQKPGQAPVTVIYANDKRPSGIPERFSGSNSGSTTTLTISGVQAEDEADYYCGTADTGKYVFGGGTKLTVLG | 1.2 | 1.55 | 1.88 | 1.88 | 1.85 | 1.84 | 1.82 | 1.8 | ~2 ng/mL | 0.069 | 0.139 | 0.287 | 0.851 | 1.79 | 2.12 | 2.1 | 2.06 | Kd [5]: 1.95 nM; koff [5]: 0.0002 s⁻¹; kon [5]: 103000 M⁻¹ s⁻¹
3 | Humanized Ab #H7-H4.00/L4.29 (antibody, human IgG1, kappa, also called humanized anti-PAD4 antibody derived from H7 (IgG1 kappa)) heavy: not shown light: SYELTQPPSVSVSPGQTARITCSGGSGRYYYGWYQQKPGQAPVTVIYSSTHRPSGIPERFSGSNSGSTTTLTISGVQAEDEADYYCGTADSSSYVFGGGTKLTVLGTVAAPSVFIFPPSDEQLKSGTASVVCLLNNFYPREAKVQWKVDNALQSGNSQESVTEQDSKDSTYSLSSTLTLSKADYEKHKVYACEVTHQGLSSPVTKSFNRGEC | – | – | – | – | – | – | – | – | ~3 ng/mL | 0.083 | 0.13 | 0.269 | 0.766 | 1.72 | 2.1 | 2.07 | 2.08 | Kd [5]: 8.28 nM; koff [5]: 0.000507 s⁻¹; kon [5]: 61300 M⁻¹ s⁻¹
4 | humanized anti-PAD4 antibody derived from A11 (H4.00/L4.29, IgG1 kappa) (antibody, V domains shown, also called humanized A11) VH: not shown VL: SYELTQPPSVSVSPGQTARITCSGGGRYYYGWYQQKPGQAPVTVIYANDKRPSGIPERFSGSNSGSTTTLTISGVQAEDEADYYCGSAETSSYVFGGGTKLTVLG | – | – | – | – | – | – | – | – | ~3 ng/mL | 0.064 | 0.122 | 0.245 | 0.733 | 1.7 | 2.08 | 2.08 | 2.08 | –

Second part, led by results:

Row | O.D. 490/630 at 0.0078125 µg/mL [3] | O.D. 490/630 at 0.015625 µg/mL [3] | O.D. 490/630 at 0.03125 µg/mL [3] | O.D. 490/630 at 0.0625 µg/mL [3] | O.D. 490/630 at 0.125 µg/mL [3] | O.D. 490/630 at 0.25 µg/mL [3] | O.D. 490/630 at 0.5 µg/mL [3] | O.D. 490/630 at 1 µg/mL [3] | EC50 (read off the curve) [4] | O.D. 490/630 at 0 µg/mL (blank) [4] | O.D. 490/630 at 0.000064 µg/mL [4] | O.D. 490/630 at 0.00032 µg/mL [4] | O.D. 490/630 at 0.0016 µg/mL [4] | O.D. 490/630 at 0.008 µg/mL [4] | O.D. 490/630 at 0.04 µg/mL [4] | O.D. 490/630 at 0.2 µg/mL [4] | O.D. 490/630 at 1 µg/mL [4] | Binder | other results
5 | 0.131 | 0.247 | 0.454 | 0.806 | 1.31 | 1.7 | 1.84 | 1.88 | – | – | – | – | – | – | – | – | – | humanized anti-PAD4 antibody derived from G8, VH H4.00 / VL L4.00 (antibody, human IgG1, kappa, V domains shown, IgG1 kappa; also called G8 H4.00/L4.00) VH: not shown VL: SYELTQPPSVSVSPGQTARITCSGGNRNYYYGWYQQKPGQAPVLVIYANDKRPSGIPERFSGSSSGTTVTLTISGVQAEDEADYYCGTADTGKYVFGGGTKLTVLG | EC50 (read off the curve) [2]: ~80 ng/mL
6 | 1.26 | 1.69 | 1.88 | 1.9 | 1.89 | 1.85 | 1.84 | 1.84 | – | – | – | – | – | – | – | – | – | humanized anti-PAD4 antibody derived from G8, VH H4.32 / VL L4.29 (antibody, IgG1, V domains shown, IgG1 kappa; also called G8 H4.32/L4.29) VH: EVQLLESGGGLVQPGGSLRLSCAASGFTFSTYAMGWVRQAPGKGLEFVAAIRNDGSWTGYGAAVKGRVTISRDNSKNTVYLQMNSLRAEDTAVYYCAKYTGSSGGSIGAWGQGTLVTVSS VL: SYELTQPPSVSVSPGQTARITCSGGNRNYYYGWYQQKPGQAPVTVIYANDKRPSGIPERFSGSNSGSTTTLTISGVQAEDEADYYCGTADTGKYVFGGGTKLTVLG | –
7 | – | – | – | – | – | – | – | – | ~3 ng/mL | 0.069 | 0.116 | 0.252 | 0.785 | 1.66 | 2.09 | 2.03 | 2.06 | humanized anti-PAD4 antibody derived from G9 (H4.00/L4.29, IgG1 kappa) (antibody, V domains shown, also called humanized G9) VH: not shown VL: SYELTQPPSVSVSPGQTARITCSGGGRYYYGWYQQKPGQAPVTVIYANDKRPSGIPERFSGSNSGSTTTLTISGVQAEDEADYYCGSAETSSYVFGGGTKLTVLG | –
